From patent publication US6124449

Assays:
[1] = molecular target: TGF-beta1 (hTGF-beta1) (Homo sapiens) (UniProt P01137); assay: cell_activity; settings: 2'-F C and U; MLEC assay; sequence contains N; column inferred
[2] = molecular target: TGF-beta1 (hTGF-beta1) (Homo sapiens) (UniProt P01137); assay: filter

TGF-beta1 (hTGF-beta1) (Homo sapiens), sequence (P01137 279-390): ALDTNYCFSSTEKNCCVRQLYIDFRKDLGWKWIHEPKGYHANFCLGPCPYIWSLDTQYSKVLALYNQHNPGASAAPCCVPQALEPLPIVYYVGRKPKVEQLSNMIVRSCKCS

With “GGGAGGACGAUGCGGGACCNUUGUNUGCGAUUCAACUCGUAGGUCUUCUCACGUGCAGACGACUCGCCCGA [40-75]” the Ki [1] was 2.25 nM.
“GGGAGGACGAUGCGGNNNNNNNNNNNNNNNNNNNNNNNNNNNNNNNNNNNNNNNNCAGACGACUCGCCCGA [random 40N7 RNA pool]” showed a Kd ([2]; 2'-F C and U (RNA transcript of template), random 2'-F RNA, DPBS, 1 mM MgCl2, 37 C) of 10 nM.
“GGGAGGACGAUGCGGUUAACCNUAAAUACGGCUUGANUUCUUCCGCAGACGACUCGCCCGA [30-19]” showed a Kd ([2]; 2'-F C and U, biphasic, Kd1 5.7±1.9 nM) of 0.346 nM.
